Reference: article PMC4742745 (The Journal of Biological Chemistry, 2015)

T1: recombinant human wild type LCAT protein (lecithin-cholesterol acyltransferase) (human, UniProt P04180 25-440)
T1 construct: human lecithin-cholesterol acyltransferase (EC 2.3.1.43), full-length coding region cloned from liver and brain cDNAs into pDSRa25; also called rLCAT; human rLCAT
T1 sequence (looked up): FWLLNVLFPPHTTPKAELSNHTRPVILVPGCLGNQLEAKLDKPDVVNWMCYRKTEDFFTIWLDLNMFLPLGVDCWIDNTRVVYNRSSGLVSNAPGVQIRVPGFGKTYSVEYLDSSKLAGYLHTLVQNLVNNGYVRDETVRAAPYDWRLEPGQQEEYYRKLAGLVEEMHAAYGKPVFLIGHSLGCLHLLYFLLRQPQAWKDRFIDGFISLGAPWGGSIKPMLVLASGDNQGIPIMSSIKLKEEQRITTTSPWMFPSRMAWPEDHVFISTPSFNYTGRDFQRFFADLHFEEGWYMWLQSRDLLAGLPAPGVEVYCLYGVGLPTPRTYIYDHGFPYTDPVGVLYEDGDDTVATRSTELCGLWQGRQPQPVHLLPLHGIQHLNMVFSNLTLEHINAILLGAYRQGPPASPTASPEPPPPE


Tests used:
[1] = target: T1, recombinant human wild type LCAT …; experiment: SPR; Biacore 3000, 25 °C, HBS-EP (10 mM HEPES pH 7.4, 150 mM NaCl, 3.0 mM EDTA, 0.05% surfactant P20); mAb captured (100 RU) on goat anti-human IgG Fc amine-coupled to a CM5 chip; LCAT flowed over (human 100 nM to 412 pM, cynomolgus 111 nM to 457 pM, 3-fold dilutions); 1:1 binding model, KD = kd/ka; details: both partners purified
[2] = target: T1, recombinant human wild type LCAT …; experiment: cell-based or functional assay

| Kd [1] [nM] | increase of the cholesterol esterification activity of native LCAT by 27C3, apoAI-proteoliposomes as substrate [2] [fold] | koff [1] [s⁻¹] | kon [1] [M⁻¹ s⁻¹] | Binder |
| --- | --- | --- | --- | --- |
| 1.32 | 3 |  |  | 27C3, fully human anti-human LCAT agonistic monoclonal antibody (antibody, V domains shown, VH of 27C3; VL of 27C3 (lambda); Human IgG2 with lambda light chain; a possible N-linked glycosylation site in heavy chain CDR1; also called 27C3 mAb; 27C3-huIgG2; source: XenoMouse hybridoma, purified from clonal hybridoma exhaust supernatants) VH: QVQLQESGPGLVKPSQTLSLTCTVSGASISSGGYNWSWIRQHPGKGLEWIGYIYYSGSTYYNPSLKSRVTISVDTSKNQFSLKLSSVTAADTAVYYCARERGYCSSTSCSRVMDVWGQGTTVTVSS VL: SSELTQDPAVSVALGQTVRITCQGDSLRSYYASWYQQKPGQAPVLVIYGKNNRPSGIPDRFSGSSSGNTASLTITGAQAEDEADYYCNSRDNIGNHQVFGGGTKLTVLG |
| 1.01 |  | 0.000133 | 132000 | 18E5, fully human anti-human LCAT agonistic monoclonal antibody (antibody, V domains shown, VH of 18E5; VL of 18E5 (kappa); Human IgG with kappa light chain (the light chain was amplified with a primer to the human kappa constant region); also called 18E5 mAb; source: XenoMouse hybridoma, purified from clonal hybridoma exhaust supernatants) VH: not shown VL: EIVLTQSPGTLSLSPGERATLSCRASQSVSGSYLTWYQQKPGQAPRLLIYGASSRATGIPDRFSGSGSGTDFTLTISRLEPEDFAMYYCQQYGGSPPFTFGPGTKVDIKR |
